B1: Nectin-3 (Mus musculus), Q9JLB9 (parent)
chain: MARTPGPAPLCPGGGKAQLSSAFPPAAGLLLPAPTPPPLLLLLIPLLLFSRLCGALAGSIIVEPHVTAVWGKNVSLKCLIEVNETITQISWEKIHGKSTQTVAVHHPQYGFSVQGDYQGRVLFKNYSLNDATITLHNIGFSDSGKYICKAVTFPLGNAQSSTTVTVLVEPTVSLIKGPDSLIDGGNETVAAVCVAATGKPVAQIDWEGDLGEMESSTTSFPNETATIVSQYKLFPTRFARGRRITCVVKHPALEKDIRYSFILDIQYAPEVSVTGYDGNWFVGRKGVNLKCNADANPPPFKSVWSRLDGQWPDGLLASDNTLHFVHPLTVNYSGVYVCKVSNSLGQRSDQKVIYISDPPTTTTLQPTVQWHSSPADVQDIATEHKKLPFPLSTLATLKDDTIGTIIASVVGGALFLVLVSILAGVFCYRRRRTFRGDYFAKNYIPPSDMQKESQIDVLHQDELDSYPDSVKKENKNPVNNLIRKDYLEEPEKTQWNNVENLTRFERPMDYYEDLKMGMKFVSDERYNESEDGLVSHVDGSVISRREWYV

Variants of: B1
Settings: with afad_rat Afdn

Row | Variant | effect of a mutation on the interaction
1 | F153L | decreasing interaction

From IntAct's records for PubMed 21880730
